Test results from paper doi:10.1101/2021.10.29.466387 (bioRxiv, 2021).
Positions count from the first letter of the chain named. Names and notes keep the numbering of the source. Values joined by “and” are separate entries in the source; they are usually repeats but may differ in a detail not shown here. Equal values may be shown once.

B1: FLAG-OmpC (natural protein)
chain: AEVYNKDGNKLDLYGKVDGLHYFSDNKDVDGDQTYMRLGFKGETQVTDQLTGYGQWEYQIQGNSAENENNSWTRVAFAGLKFQDVGSFDYGRNYGVVYDVTSWTDVLPEFGGDTYGSDNFMQQRGNGFATYRNTDFFGLVDGLNFAVQYQGKNGNPSGEGFTSGVTNNGRDALRQNGDGVGGSITYDYEGFGIGGAISSSKRTDAQNTAAYIGNGDRAETYTGGLKYDANNIYLAAQYTQTYNATRVGSLGWANKAQNFEAVAQYQFDFGLRPSLAYLQSKGKNLGRGYDDEDILKYVDVGATYYFNKNMSTYVDYKINLLDDNQFTRDAGINTDNIVALGLVYQF
B2: OmpC-His6 (natural protein)
chain: B1 chain
B3: ^35S-labelled OmpC (natural protein)
chain: MKVKVLSLLVPALLVAGAANAAEVYNKDGNKLDLYGKVDGLHYFSDNKDVDGDQTYMRLGFKGETQVTDQLTGYGQWEYQIQGNSAENENNSWTRVAFAGLKFQDVGSFDYGRNYGVVYDVTSWTDVLPEFGGDTYGSDNFMQQRGNGFATYRNTDFFGLVDGLNFAVQYQGKNGNPSGEGFTSGVTNNGRDALRQNGDGVGGSITYDYEGFGIGGAISSSKRTDAQNTAAYIGNGDRAETYTGGLKYDANNIYLAAQYTQTYNATRVGSLGWANKAQNFEAVAQYQFDFGLRPSLAYLQSKGKNLGRGYDDEDILKYVDVGATYYFNKNMSTYVDYKINLLDDNQFTRDAGINTDNIVALGLVYQF
modifications: ^35S-methionine label
B4: ^35S-labelled OmpC(Y286A) (natural protein)
chain: B3 chain with Y286A
modifications: ^35S-methionine label
B5: OmpF (natural protein)
chain: AEIYNKDGNKVDLYGKAVGLHYFSKGNGENSYGGNGDMTYARLGFKGETQINSDLTGYGQWEYNFQGNNSEGADAQTGNKTRLAFAGLKYADVGSFDYGRNYGVVYDALGYTDMLPEFGGDTAYSDDFFVGRVGGVATYRNSNFFGLVDGLNFAVQYLGKNERDTARRSNGDGVGGSISYEYEGFGIVGAYGAADRTNLQEAQPLGNGKKAEQWATGLKYDANNIYLAANYGETRNATPITNKFTNTSGFANKTQDVLLVAQYQFDFGLRPSIAYTKSKAKDVEGIGDVDLVNYFEVGATYYFNKNMSTYVDYIINQIDSDNKLGVGSDDTVAVGIVYQF

Assays:
native gel or EMSA = molecular target: the molecule itself; experiment: native gel or EMSA
[1] = molecular target: the molecule itself; experiment: SDS-PAGE of samples folded in detergent micelles

Protein	stoichiometry N (native gel or EMSA)	stoichiometry N [1]
B1	2 and 3	–
B2	–	3
B3	3	–
B4	3	–
B5	3 and 2	–
